Target: Human IgE antibody (human)
Assay: cell-based or functional assay

B1: FP140 (Fc fusion)
chain: DKTHTCPPCPAPEAAGAPSVFLFPPKPKDTLMISRTPEVTCVVVDVSHEDPEVKFNWYVDGVEVHNAKTKPREEQQNSTYRVVSVLTVLHQDWLNGKEYKCKVSNKALKAPIEKTISKAKGQPREPQVYTLPPSRDELTKNQVSLTCLVKGFYPSDIAVEWESNGQPENNYKTTPPVLDSDGSFFLYSKLTVDKSRWQQGNVFSCSVMHEALHNHYTQKSLSLSPGGSSAPGSSAPGSSAPTALGRRKAEDRIKETLWADGVKIDEKDFEHIKSSHEDYFAVEYGKGSGYYDVNKKMDSEDTALCVGAVVTNMFHWWVDQNRENIEKFKKQDPENNGVMKFEGVKEATVDELNEFYRDNRDNYADQSRFFDLIKKHFGNKALNPEELFELYFNGFYYGSSHRYIEDNEPAQNNLFSKVLENNKLLNPERSYGIDGFSNNVINALKSHKVLGLVYTTPLRYRHIISMWGADIDQDGKVKAIYVTDSDDREITFNDNSKRRIGMIRYDVLVDDNGNIRFTGKGATHKEEGAIYAGLYSLSRGDEVWEDYFKKYPEVQENL
EC50 CE-SDS IgE: 0.43 nM
EC50 MSD IgE: 1.35 nM

B2: FP141 (Fc fusion)
chain 1: DKTHTCPPCPAPEAAGAPSVFLFPPKPKDTLMISRTPEVTCVVVDVSHEDPEVKFNWYVDGVEVHNAKTKPREEQQNSTYRVVSVLTVLHQDWLNGKEYKCKVSNKALKAPIEKTISKAKGQPREPQVYTLPPSRDELTKNQVSLWCLVKGFYPSDIAVEWESNGQPENNYKTTPPVLDSDGSFFLYSKLTVDKSRWQQGNVFSCSVMHEALHNHYTQKSLSLSPGGGGSGGGGSGGGGSTALGRRKAEDRIKETLWADGVKIDEKDFEHIKSSHEDYFAVEYGKGSGYYDVNKKMDSEDTALCVGAVVTNMFHWWVDQNRENIEKFKKQDPENNGVMKFEGVKEATVDELNEFYRDNRDNYADQSRFFDLIKKHFGNKALNPEELFELYFNGFYYGSSHRYIEDNEPAQNNLFSKVLENNKLLNPERSYGIDGFSNNVINALKSHKVLGLVYTTPLRYRHIISMWGADIDQDGKVKAIYVTDSDDREITFNDNSKRRIGMIRYDVLVDDNGNIRFTGKGATHKEEGAIYAGLYSLSRGDEVWEDYFKKYPEVQENL
chain 2: DKTHTCPPCPAPEAAGAPSVFLFPPKPKDTLMISRTPEVTCVVVDVSHEDPEVKFNWYVDGVEVHNAKTKPREEQQNSTYRVVSVLTVLHQDWLNGKEYKCKVSNKALKAPIEKTISKAKGQPREPQVYTLPPSRDELTKNQVSLSCAVKGFYPSDIAVEWESNGQPENNYKTTPPVLDSDGSFFLVSKLTVDKSRWQQGNVFSCSVMHEALHNHYTQKSLSLSPG
EC50 CE-SDS IgE: 0.75 nM
EC50 MSD IgE: 0.874 nM

B3: FP142 (Fc fusion)
chain 1: DKTHTCPPCPAPEAAGAPSVFLFPPKPKDTLMISRTPEVTCVVVDVSHEDPEVKFNWYVDGVEVHNAKTKPREEQQNSTYRVVSVLTVLHQDWLNGKEYKCKVSNKALKAPIEKTISKAKGQPREPQVYTLPPCRDELTKNQVSLWCLVKGFYPSDIAVEWESNGQPENNYKTTPPVLDSDGSFFLYSKLTVDKSRWQQGNVFSCSVMHEALHNHYTQKSLSLSPGGGGSGGGGSGGGGSTALGRRKAEDRIKETLWADGVKIDEKDFEHIKSSHEDYFAVEYGKGSGYYDVNKKMDSEDTALCVGAVVTNMFHWWVDQNRENIEKFKKQDPENNGVMKFEGVKEATVDELNEFYRDNRDNYADQSRFFDLIKKHFGNKALNPEELFELYFNGFYYGSSHRYIEDNEPAQNNLFSKVLENNKLLNPERSYGIDGFSNNVINALKSHKVLGLVYTTPLRYRHIISMWGADIDQDGKVKAIYVTDSDDREITFNDNSKRRIGMIRYDVLVDDNGNIRFTGKGATHKEEGAIYAGLYSLSRGDEVWEDYFKKYPEVQENL
chain 2: DKTHTCPPCPAPEAAGAPSVFLFPPKPKDTLMISRTPEVTCVVVDVSHEDPEVKFNWYVDGVEVHNAKTKPREEQQNSTYRVVSVLTVLHQDWLNGKEYKCKVSNKALKAPIEKTISKAKGQPREPQVCTLPPSRDELTKNQVSLSCAVKGFYPSDIAVEWESNGQPENNYKTTPPVLDSDGSFFLVSKLTVDKSRWQQGNVFSCSVMHEALHNHYTQKSLSLSPG
EC50 CE-SDS IgE: 3.8 nM
